Assay [1] has as its target T1, PAI-1 (Homo sapiens, UniProt P05121).
T1 construct: gift of Pr; P. Declerck
The experiment in a line: Immunofluorescence staining on HUVEC, co-localization with His-tag PAI-1. In kind it is cell-based. The conditions noted are these: HUVECs, PAI-1 added to the medium with 16K PRL. On the procedure: HUVECs were grown to 70% confluence on gelatin-coated 35-mm dishes. After incubation for 3 h with 14K GH (160 ng/ml) or 16K PRL (160 ng/ml), the cells were washed with PBS at room temperature and incubated for 1 h at room temperature under non-permeabilization conditions with mouse anti uPA (American Diagnostica INC) diluted 1/100, rabbit anti prolactin (Dako) diluted 1/100, or rabbit anti human GH (home made) diluted 1/100. Endothelial cells were washed in PBS and incubated with FITC horse anti mouse (Vector Laboratory) and Texas red goat anti rabbit antibodies (Jackson Laboratory). For PAI-1 staining, the cells were incubated simultaneously with Histag PAI-1 at 800 uM and 16K PRL or 14K GH. […] Cryostat tumor sections (5 μm thick) were fixed in acetone at −20° C. and in 100% methanol at 4° C. and then incubated with the primary antibodies, rat monoclonal anti PECAM-1, and rabbit polyclonal anti-prolactin (DAKO) for 1 hour at room temperature. The slides were washed and incubated with a Cy3 goat anti-rat and an FITC goat anti-rabbit antibody. After 3 washes in PBS for 10 min, the slides were covered with coverslips in mounting medium (Victor Laboratories Inc.) and analyzed by fluorescence microscopy.

Assay [2] deals with NF-κB. The experiment in a line: NF-κB activity in ABAE cells. It is filed as cell-based, bovine. As to conditions: PAI-1 knockdown with si-RNA, 16K PRL 50 nM 1 h.
Assay [3] has as its target T2, PAI-1 (Mus musculus, UniProt P22777).
T2 construct: from tissue; host or cells: BalbC Njrj mice, in vivo (blood)
T2 sequence (P22777 23-402): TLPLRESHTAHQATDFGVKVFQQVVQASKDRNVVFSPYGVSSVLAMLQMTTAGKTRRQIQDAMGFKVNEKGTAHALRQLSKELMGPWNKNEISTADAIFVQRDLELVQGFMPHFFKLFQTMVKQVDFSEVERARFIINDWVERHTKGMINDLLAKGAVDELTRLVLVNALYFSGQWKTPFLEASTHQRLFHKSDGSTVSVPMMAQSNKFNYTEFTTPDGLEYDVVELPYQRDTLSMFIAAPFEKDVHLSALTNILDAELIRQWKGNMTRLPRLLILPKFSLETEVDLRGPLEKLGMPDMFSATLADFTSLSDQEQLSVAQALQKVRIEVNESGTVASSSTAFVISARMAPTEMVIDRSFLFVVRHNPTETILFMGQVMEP
Nature of the assay: Murine thromboembolism model (tPA/thromboplastin). In kind it is in vivo. As to conditions: recombinant 16K PRL 1 mg/kg i.v. 5 min before t-PA/thromboplastin; survival at 15 min; control group 73%; p=0.003. As for the experimental part:
BalbC Njrj Mice were used and anesthetised with ketamine/xylazine throughout the whole experiment. Recombinant 16K PRL and adenovirus vectors 16K-Ad and Null-Ad were produced as described above. The animal experiment protocol used was approved by the Institutional Ethics Committee of the University of Liege.
Recombinant 16K PRL (1 mg/kg) or POPRL 7-12 (10 mg/kg) were administrated via the vein to BalbC Njrj mice of approximately 15-18 g. Five minutes after the injection, a suboptimal concentration of t-PA (0.1 mg/kg) was injected immediately followed by i.v. injection of thromboplastin (3.3 μg/kg) to evoke thromboembolism. Mice were evaluated after 15 min for survival. For experiment with adenovirus vectors, mice were injected into the tail vein with 10^9 pfu of 16K hPRL adenovirus (16K-Ad) and their corresponding control (Null-Ad) 5 days before the injection a suboptimal concentration of t-PA (0.1 mg/kg) injected immediately followed by i.v. injection of thromboplastin (3.3 μg/kg).
The fisher test was used to determine the significance of the differences in the mortality assays.

The subject of assay [4] is NF-κB. The experiment in a line: NF-κB p65 DNA-binding activity in HUVECs. The conditions noted are these: 16K PRL 50 nM 1 h. It is filed as cell-based, human. On the procedure:
HUVECs were incubated for 2 h with 16K PRL and immunostained for uPA (red) or 16K PRL (green) and nuclei (DAPI, blue). Bottom panels: co-localization of PAI-1 and 16K PRL. To visualize added PAI-1 and not endogenous PAI-1, cells were incubated with His-tag PAI-1 and 16K PRL and stained for PAI-1 (red), 16K PRL (green), and nuclei (DAPI, blue). (B) Schematic outline of the proximity ligation assay (PLA) strategy showing primary antibody from different species for uPA and 16K PRL. Juxtaposition of secondary, oligonucleotide ligated antibodies allows a rolling circle amplification detected by a cy3-probe. (C) Detection of uPA/16K PRL complexes (red spots) on HUVECs by PLA. […]
HUVECs were pre-treated with a blocking uPAR Ab 3 μg/ml (R&D system) or control IgG (SantaCruz) for 1 h and then incubated for 1 h with 16K PRL (50 nM). The p65 DNA-binding activity of NF-κB was quantified by ELISA (EZ Transcription Factor kit NF-κB p65 (Pierce)) according to the manufacturer's instructions on total protein extracts. Protein concentrations were determined by the […] using the BCA protein assay reagent (Pierce). NF-κB binding to the target oligonucleotide was detected by incubation with primary antibody specific for the activated form of p65, visualized by anti-IgG horseradish peroxidase conjugate and developing solution. Chemiluminescence was quantified with a luminometer.

T1 sequence (P05121 24-402): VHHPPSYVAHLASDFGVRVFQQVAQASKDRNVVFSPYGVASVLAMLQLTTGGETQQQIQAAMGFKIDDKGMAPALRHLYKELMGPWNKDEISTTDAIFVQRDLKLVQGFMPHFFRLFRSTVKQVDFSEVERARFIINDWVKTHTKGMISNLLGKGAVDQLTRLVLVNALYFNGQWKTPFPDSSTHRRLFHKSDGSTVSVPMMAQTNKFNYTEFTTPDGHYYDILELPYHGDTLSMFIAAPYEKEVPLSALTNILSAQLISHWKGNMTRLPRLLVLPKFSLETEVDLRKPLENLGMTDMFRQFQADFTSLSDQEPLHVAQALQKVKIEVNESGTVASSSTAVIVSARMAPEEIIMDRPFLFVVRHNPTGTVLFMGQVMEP

B1: 16K hPRL: 16K N-terminal human prolactin fragment, recombinant, produced and purified from E. coli (protein)
chain: LPICPGGAARCQVTLRDLFDRAVVLSHYIHNLSSEMFSEFDKRYTHGRGFITKAINSCHTSSLATPEDKEQAQQMNQKDFLSLIVSILRSWNEPLYHLVTEVRGMQEAPEAILSKAVEIEEQTKRLLEGMELIVSQVHP
In general, mortality refers to the percentage killed. Consider B1, for which the “co-localization with PAI-1” value with PAI-1 [1] is “co-localization of 16K PRL and PAI-1 was observed”. The “16K PRL action on ECs (NF-κB activity)” value in the assay with NF-κB [2] is “reduced”. The mortality with PAI-1 [3] turned out to be 32%. For the same molecule, the “16K PRL-induced NF-κB signaling” value with NF-κB [4] (blocking uPAR antibody pre-treatment 1 h) is on record as “disrupts”. Moreover, the “16K PRL response (NF-κB activity), requirement of uPA” value in the assay with NF-κB [4] (pre-treatment with ATF of uPA) was “required”.

These data come from patent US20130035289A1, “PHARMACEUTICAL COMPOSITION FOR TREATMENT OF THROMBOSIS-RELATED DISEASES COMPRISING A FRAGMENT OF PROLACTIN (PRL)-GROWTH HORMONE (GH)-PLACENTAL LACTOGEN (PL)-FAMILY PROTEIN” (UNIVERSITE DE LIEGE, priority 2010, published 2013).
